Measurements taken from publication PMC2791223.

B1: μ121 (AP-1 medium subunit μ1, residues 121–423) (domain or fragment)
chain: GYPQTTDSKILQEYITQEGHKLETGAPRPPATVTNAVSWRSEGIKYRKNEVFLDVIEAVNLLVSANGNVLRSEIVGSIKMRVFLSGMPELRLGLNDKVLFDNTGRGKSKSVELEDVKFHQCVRLSRFENDRTISFIPPDGEFELMSYRLNTHVKPLIWIESVIEKHSHSRIEYMVKAKSQFKRRSTANNVEIHIPVPNDADSPKFKTTVGSVKWVPENSEIVWSVKSFPGGKEYLMRAHFGLPSVEAEDKEGKPPISVKFEIPYFTTSGIQVRYLKIIEKSGYQALPWVRYITQNGDYQLRTQ

Assays:
Assay in all cases: pull-down; partially purified recombinant proteins mixed and incubated overnight at 4°C, GSTrap columns, washed with 50 mM Tris pH 7.5, 150 mM NaCl, eluted with 10 mM reduced glutathione; Western blot with anti-His6 antibody, bands quantified with Image J, pulldown by GST-CD-Nef set to 100%
[1] = molecular target: GST-MHC-I CD-Nef (human | HIV-1) (UniProt P03406)
[2] = molecular target: GST-CD-Nef M20A,LL/AA (human | HIV-1) (UniProt P03406)
[3] = molecular target: GST-CD-Nef P78A,LL/AA (human | HIV-1) (UniProt P03406)
[4] = molecular target: GST-CD-Nef E62-65A,LL/AA (human | HIV-1) (UniProt P03406)
[5] = molecular target: GST-MHC-I CD-Nef LL/AA (human | HIV-1) (UniProt P03406)
[6] = molecular target: GST-CD(Y320A)-NefLL/AA (human | HIV-1) (UniProt P03406)

| Molecule | pulldown efficiency (% of the pulldown of wild-type μ1 by GST-CD-Nef) [1] [%] | pulldown efficiency (% of the pulldown of μ1 by GST-CD-Nef) [2] [%] | pulldown efficiency (% of the pulldown of μ1 by GST-CD-Nef) [3] [%] | pulldown efficiency (% of the pulldown of μ1 by GST-CD-Nef) [4] [%] | pulldown efficiency (% of the pulldown of μ1 by GST-CD-Nef) [5] [%] | pulldown efficiency (% of the pulldown of μ1 by GST-CD-Nef) [6] [%] |
| --- | --- | --- | --- | --- | --- | --- |
| truncated μ1 mutant V392A/L395A (domain or fragment) | 24 | – | – | – | – | – |
| truncated μ1 mutant F172A/D174S (domain or fragment) | 57 | – | – | – | – | – |
| B1 | – | 53 | 19 | 30 | 77 | 16 |
